Data published in patent publication US20260167699A1 (Chugai, published 2026).
Numbering of substitutions follows the chain as printed. Names may count otherwise. Like-named read-outs stand apart in the source and are kept apart here.

Tests used:
[1] = target: T1, integrin αvβ3 (R & D Systems, Inc.) (UniProt P06756 31-992; P05106 27-718); test: ELISA on coated integrin αvβ3 (1 µg/mL), detection with HRP-labeled anti-human IgG antibody
T1 construct: Bought protein
Description: The integrin αvβ3 binding of each molecule with the RGD (Arg-Gly-Asp) peptide inserted in the Fc region was assessed by ELISA (enzyme-Linked immunosorbent assay). Specifically, integrin αvβ3 (R & D Systems, Inc.) diluted to 1 μg/mL with a coating buffer (0.1 M NaHCO₃, pH 9.6) was added at a concentration of 100 μL/well to Nunc-Immuno™ MicroWell™ 96 well solid plates (Nunc) to immobilize the integrin αvβ3 to the plates. Each well of the antigen (integrin αvβ3)-immobilized plates was washed three times with 250 μL of a TBS solution containing 0.1 g/L calcium chloride and 0.1 g/L magnesium chloride (referred to as a TBS(+) solution). A TBS solution containing 5% BSA, 0.1 g/L calcium chloride, and 0.1 g/L magnesium chloride (referred to as a blocking solution) was added thereto at a concentration of 250 μL/well, and the plates were incubated at room temperature for 1 hour.
After removal of the blocking solution, each well was washed three times with a TBS(+) solution. […]
After removal of the HRP-labeled antibody solution, each well was washed three times with a TBS(+) solution. […] The absorbance of the solution whose reaction had been stopped was measured at a wavelength of 450 nm.

[2] = target: T2, FcγRIIIa(F) extracellular domain with C-terminal His tag (human, UniProt P08637 17-208); test: SPR (Biacore), captured antibody, FcγR analyte, 1:1 Langmuir fit
T2 construct: extracellular domain; polymorphic form F158; also called FcγRIIIa F type
Description: (§1) The antibody of interest was analyzed for its interaction with FcγR using a BiaCore™ T100, BiaCore™ A100, or BiaCore™ 4000 surface plasmon resonance system (GE Healthcare Japan Corp.). The running buffer used was HBS-EP+ (GE Healthcare Japan Corp.). The assay temperature was set to 25° C. The sensor chips used were: a chip prepared by immobilizing antigenic peptides onto Series S Sensor Chip CM5 (GE Healthcare Japan Corp.) by the amine coupling method; a chip prepared by immobilizing antigenic peptides biotinylated in advance onto Series S Sensor Chip SA (certified) (GE Healthcare Japan Corp.) through their interaction; a chip prepared by immobilizing protein L (ACTIGEN, BioVision, Inc.) onto Series S Sensor Chip CM5 (GE Healthcare Japan Corp.); and a chip prepared by immobilizing protein A/G (Thermo Fisher Scientific K.K.) onto Series S Sensor Chip CM5 (GE Healthcare Japan Corp.). The antibody of interest was captured onto any of these chips and allowed to interact with FcγR diluted with a running buffer. The antibody captured on the chip was washed off through the reaction of 10 mM glycine-HCl (pH 1.5) to regenerate the chip, which was repetitively used.

[3] = target: T3, FcγRIIa(R) extracellular domain with C-terminal His tag (human, UniProt P12318 34-217); test: as above
T3 construct: extracellular domain; polymorphic form R131; also called FcγRIIa R type
T3 sequence: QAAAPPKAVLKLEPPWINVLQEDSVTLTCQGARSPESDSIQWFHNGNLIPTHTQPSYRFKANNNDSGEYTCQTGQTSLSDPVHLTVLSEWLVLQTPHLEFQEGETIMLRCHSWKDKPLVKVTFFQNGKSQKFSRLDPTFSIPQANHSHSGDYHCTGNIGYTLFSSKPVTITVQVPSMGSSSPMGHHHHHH
Description: as §1

[4] = target: T4, FcγRIa extracellular domain with C-terminal His tag (human, UniProt P12314 16-292); test: as above
T4 construct: extracellular domain
Description: as §1

[5] = target: T5, FcγRIIIa(V) extracellular domain with C-terminal His tag (human, UniProt P08637 17-208); test: as above
T5 construct: extracellular domain; polymorphic form V158; also called FcγRIIIa V type
Description: as §1

[6] = target: T6, FcγRIIa(H) extracellular domain with C-terminal His tag (human, UniProt P12318 34-217); test: as above
T6 construct: extracellular domain; polymorphic form H131; also called FcγRIIa H type
T6 sequence: T3 sequence with R134H
Description: as §1

[7] = target: T2, FcγRIIIa(F) extracellular domain with …; test: as above; remark: listed apart in the source
Description: as §1

[8] = target: T3, FcγRIIa(R) extracellular domain with …; test: as above; remark: listed apart in the source
Description: as §1

[9] = target: T4, FcγRIa extracellular domain with …; test: as above; remark: listed apart in the source
Description: as §1

[10] = target: T5, FcγRIIIa(V) extracellular domain with …; test: as above; remark: listed apart in the source
Description: as §1

[11] = target: T6, FcγRIIa(H) extracellular domain with …; test: as above; remark: listed apart in the source
Description: as §1

[12] = target: T7, FcγRIIb extracellular domain with C-terminal His tag (human, UniProt P31994 43-217); test: SPR (Biacore), captured antibody, FcγR analyte, 1:1 Langmuir fit; naturally occurring IgG1 (not afucosylated)
T7 construct: extracellular domain
T7 sequence: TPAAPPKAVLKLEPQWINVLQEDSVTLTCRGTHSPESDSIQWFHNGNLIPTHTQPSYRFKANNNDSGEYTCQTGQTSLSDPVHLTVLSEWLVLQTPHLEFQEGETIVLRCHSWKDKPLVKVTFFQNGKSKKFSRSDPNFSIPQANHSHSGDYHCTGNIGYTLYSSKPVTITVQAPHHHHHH
Description: as §1

[13] = target: T7, FcγRIIb extracellular domain with …; test: SPR (Biacore), captured antibody, FcγR analyte, 1:1 Langmuir fit; afucosylated G1d; Table 8 reprint of Table 7
Description: as §1

[14] = target: T7, FcγRIIb extracellular domain with …; test: SPR (Biacore), captured antibody, FcγR analyte, 1:1 Langmuir fit; afucosylated antibody (same sequence as G1d, other glycoform)
[15] = target: T8, FcγRIIIa extracellular domain with C-terminal His tag (allotype not given) (UniProt P08637 17-208, limits assumed); test: SPR (Biacore), from the KD values of Table 5
T8 construct: extracellular domain; also called 3a

[16] = target: T9, FcγRIIa R extracellular domain with C-terminal His tag (UniProt P12318 34-217, limits assumed); test: SPR (Biacore), as the text refers to Example 3
T9 construct: extracellular domain; also called 2aR
T9 sequence: T3 sequence

[17] = target: T10, FcγRIa extracellular domain with C-terminal His tag (UniProt P12314 16-292, limits assumed); test: SPR (Biacore), as the text refers to Example 3
T10 construct: extracellular domain; also called 1a

[18] = target: T11, FcγRIIb extracellular domain with C-terminal His tag (UniProt P31994 43-217, limits assumed); test: SPR (Biacore), as the text refers to Example 3
T11 construct: extracellular domain; also called 2b
T11 sequence: T7 sequence

[19] = target: T12, FcγRIIa H extracellular domain with C-terminal His tag (UniProt P12318 34-217, limits assumed); test: SPR (Biacore), as the text refers to Example 3
T12 construct: extracellular domain; also called 2aH
T12 sequence: T3 sequence with R134H

T2 sequence (P08637 other isoform, or with tags, fused parts or gaps): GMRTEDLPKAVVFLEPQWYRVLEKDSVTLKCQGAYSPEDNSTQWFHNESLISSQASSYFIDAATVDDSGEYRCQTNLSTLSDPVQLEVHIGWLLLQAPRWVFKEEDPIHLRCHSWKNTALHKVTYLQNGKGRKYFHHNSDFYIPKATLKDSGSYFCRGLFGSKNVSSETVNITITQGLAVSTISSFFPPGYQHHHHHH
T5 sequence (P08637 other isoform, or with tags, fused parts or gaps): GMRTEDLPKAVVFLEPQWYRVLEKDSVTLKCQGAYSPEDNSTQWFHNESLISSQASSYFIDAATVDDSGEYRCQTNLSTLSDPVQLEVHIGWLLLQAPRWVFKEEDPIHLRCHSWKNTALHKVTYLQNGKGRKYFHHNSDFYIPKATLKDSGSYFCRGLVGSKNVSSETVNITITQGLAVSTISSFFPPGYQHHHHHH
T4 sequence (P12314 other isoform, or with tags, fused parts or gaps): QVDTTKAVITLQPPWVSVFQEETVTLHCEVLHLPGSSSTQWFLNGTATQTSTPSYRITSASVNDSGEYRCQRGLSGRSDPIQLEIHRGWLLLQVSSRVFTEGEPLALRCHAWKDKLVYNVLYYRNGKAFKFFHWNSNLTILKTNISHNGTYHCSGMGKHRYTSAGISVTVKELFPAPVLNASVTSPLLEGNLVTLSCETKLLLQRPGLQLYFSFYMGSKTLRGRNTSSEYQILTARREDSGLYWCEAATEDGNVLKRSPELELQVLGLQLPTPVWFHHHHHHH
T1 sequence (P06756 31-992, chain 1 of 2): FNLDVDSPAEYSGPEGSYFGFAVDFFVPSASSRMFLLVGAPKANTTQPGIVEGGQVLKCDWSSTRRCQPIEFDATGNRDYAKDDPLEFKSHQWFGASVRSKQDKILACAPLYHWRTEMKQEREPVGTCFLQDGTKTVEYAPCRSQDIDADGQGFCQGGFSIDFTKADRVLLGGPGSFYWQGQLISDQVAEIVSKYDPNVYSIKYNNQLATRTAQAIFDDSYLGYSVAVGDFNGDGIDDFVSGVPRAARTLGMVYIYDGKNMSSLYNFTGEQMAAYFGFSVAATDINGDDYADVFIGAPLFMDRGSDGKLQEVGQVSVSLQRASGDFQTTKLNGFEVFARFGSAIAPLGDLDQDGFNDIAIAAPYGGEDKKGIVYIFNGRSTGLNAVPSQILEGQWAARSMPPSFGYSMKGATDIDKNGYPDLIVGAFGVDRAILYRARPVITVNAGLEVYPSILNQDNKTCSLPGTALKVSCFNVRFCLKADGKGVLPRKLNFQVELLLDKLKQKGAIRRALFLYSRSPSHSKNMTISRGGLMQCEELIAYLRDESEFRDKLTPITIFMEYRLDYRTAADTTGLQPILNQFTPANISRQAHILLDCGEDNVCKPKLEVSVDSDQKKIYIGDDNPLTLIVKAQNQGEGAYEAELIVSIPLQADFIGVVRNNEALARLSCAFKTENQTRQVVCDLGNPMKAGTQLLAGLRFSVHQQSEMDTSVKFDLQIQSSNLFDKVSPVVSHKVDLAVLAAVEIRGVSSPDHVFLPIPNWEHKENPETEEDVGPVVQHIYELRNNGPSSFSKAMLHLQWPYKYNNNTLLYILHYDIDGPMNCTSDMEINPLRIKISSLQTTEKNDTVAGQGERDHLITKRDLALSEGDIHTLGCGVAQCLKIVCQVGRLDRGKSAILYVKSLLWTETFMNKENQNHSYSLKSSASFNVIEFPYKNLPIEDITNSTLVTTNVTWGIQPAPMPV
T1 sequence (P05106 27-718, chain 2 of 2): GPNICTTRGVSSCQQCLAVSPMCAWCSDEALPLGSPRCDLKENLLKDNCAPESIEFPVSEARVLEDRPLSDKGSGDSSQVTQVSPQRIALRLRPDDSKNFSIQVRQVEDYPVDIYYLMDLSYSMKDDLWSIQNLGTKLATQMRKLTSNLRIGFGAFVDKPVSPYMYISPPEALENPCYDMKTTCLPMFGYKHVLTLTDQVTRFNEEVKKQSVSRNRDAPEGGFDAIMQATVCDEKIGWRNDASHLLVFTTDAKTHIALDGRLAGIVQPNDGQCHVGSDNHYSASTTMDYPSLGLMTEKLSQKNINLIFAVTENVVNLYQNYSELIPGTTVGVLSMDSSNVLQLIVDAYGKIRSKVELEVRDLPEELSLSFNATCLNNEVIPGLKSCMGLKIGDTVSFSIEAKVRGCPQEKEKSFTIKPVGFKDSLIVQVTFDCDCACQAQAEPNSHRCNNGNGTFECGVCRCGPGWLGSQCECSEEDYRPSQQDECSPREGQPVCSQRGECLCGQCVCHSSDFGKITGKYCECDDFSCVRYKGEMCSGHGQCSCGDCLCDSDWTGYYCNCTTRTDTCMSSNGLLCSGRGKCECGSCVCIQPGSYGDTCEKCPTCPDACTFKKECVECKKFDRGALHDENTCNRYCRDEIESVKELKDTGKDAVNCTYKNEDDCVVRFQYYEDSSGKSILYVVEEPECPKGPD
T10 sequence (P12314 other isoform, or with tags, fused parts or gaps limits assumed): as the sequence (P12314 other isoform, or with tags, fused parts or gaps) above

B1: H240-Kn125/H240-Hl076/L73-k0 (antibody, human IgG1, kappa)
heavy 1: QDQLVQSGAEVKKPGASVKVSCKASGFNIKDTYIQWVRQAPGQGLEWMGRIDPLRKQTKYREKFEGRVTITADTSTNTAYMELSSLRSEDTAVYYCVRSGREFDYWGQGTLVTVSSASTKGPSVFPLAPSSKSTSGGTAALGCLVKDYFPEPVTVSWNSGALTSGVHTFPAVLQSSGLYSLSSVVTVPSSSLGTQTYICNVNHKPSNTKVDKKVEPKSCDKTHTCPPCPAPEYQWGPMVFLFPPKPKDTLMISRTPEVTCVVVDVSDEEPEVKFNWYVDGVEVHNAKTKPREEQYNATYRVVSVLTVLHQDWLNGKEYKCKVSNKALPAPIEKTISKAKGQPREPQVCTLPPSRDELTKNQVSLWCLVKGFYPSDIAVEWESNGQPENNYKTTPPVLDSDGSFFLYSKLTVDKSRWQQGNVFSCSVMHEALHNHYTQKSLSLSP
heavy 2: QDQLVQSGAEVKKPGASVKVSCKASGFNIKDTYIQWVRQAPGQGLEWMGRIDPLRKQTKYREKFEGRVTITADTSTNTAYMELSSLRSEDTAVYYCVRSGREFDYWGQGTLVTVSSASTKGPSVFPLAPSSKSTSGGTAALGCLVKDYFPEPVTVSWNSGALTSGVHTFPAVLQSSGLYSLSSVVTVPSSSLGTQTYICNVNHKPSNTKVDKKVEPKSCDKTHTCPPCPAPELLGGPSVFLFPPKPKDTLMISRTPEVTCVVVDVSHEEPEVKFNWYVDGVEVHNAKTKPREEQYNSTYRVVSVLTVLHQDWLNGKEYKCKVSNDALPMPIEETISKAKGQPREPQVYTLPPSRCELTKNQVSLSCAVKGFYPSDIAVEWESNGQPENNYKTTPPVLDSDGSFFLVSKLTVDKSRWQQGNVFSCSVMHEALHNHYTQKSLSLSP
light: DIQMTQSPSSLSASVGDRVTITCRASQDIHKYIAWYQQKPGQAPRLLIQYTSTLQPGVPSRFSGSGSGTDYTFTISSLQPEDIATYYCLQYEQLRTFGGGTKVEIKRTVAAPSVFIFPPSDEQLKSGTASVVCLLNNFYPREAKVQWKVDNALQSGNSQESVTEQDSKDSTYSLSSTLTLSKADYEKHKVYACEVTHQGLSSPVTKSFNRGEC
notes: also called Hl076/Kn125; parent peptide
binding result [1]: no binding (tested: 100 µg/mL)

B2: H240-G1d/L73-k0 (antibody, human IgG1, kappa)
heavy: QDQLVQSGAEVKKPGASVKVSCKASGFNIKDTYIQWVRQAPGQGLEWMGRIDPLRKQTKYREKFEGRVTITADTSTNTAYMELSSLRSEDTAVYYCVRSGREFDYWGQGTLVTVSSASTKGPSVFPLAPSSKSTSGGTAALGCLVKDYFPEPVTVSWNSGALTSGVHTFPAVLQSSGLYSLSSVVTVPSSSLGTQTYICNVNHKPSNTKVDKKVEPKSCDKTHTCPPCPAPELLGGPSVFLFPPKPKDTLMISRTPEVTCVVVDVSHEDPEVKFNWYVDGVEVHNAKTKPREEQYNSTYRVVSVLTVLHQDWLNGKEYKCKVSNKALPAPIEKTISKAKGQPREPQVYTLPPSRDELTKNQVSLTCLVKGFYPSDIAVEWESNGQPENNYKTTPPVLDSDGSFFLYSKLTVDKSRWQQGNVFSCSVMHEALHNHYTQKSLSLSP
light: B1 light
notes: anti-epiregulin IgG1; also called H240-G1d/H240-G1d/L73-k0; naturally occurring IgG1
Kd [2]: 1400 nM | Kd [3]: 880 nM | Kd [4]: 0.23 nM | Kd [5]: 310 nM | Kd [6]: 660 nM | Kd [7]: 1400 nM | Kd [8]: 880 nM | Kd [9]: 0.23 nM | Kd [10]: 310 nM | Kd [11]: 660 nM | Kd [12]: 6000 nM

B3: H240-afucosyl_G1d/L73-k0 (antibody, human IgG1, kappa)
heavy: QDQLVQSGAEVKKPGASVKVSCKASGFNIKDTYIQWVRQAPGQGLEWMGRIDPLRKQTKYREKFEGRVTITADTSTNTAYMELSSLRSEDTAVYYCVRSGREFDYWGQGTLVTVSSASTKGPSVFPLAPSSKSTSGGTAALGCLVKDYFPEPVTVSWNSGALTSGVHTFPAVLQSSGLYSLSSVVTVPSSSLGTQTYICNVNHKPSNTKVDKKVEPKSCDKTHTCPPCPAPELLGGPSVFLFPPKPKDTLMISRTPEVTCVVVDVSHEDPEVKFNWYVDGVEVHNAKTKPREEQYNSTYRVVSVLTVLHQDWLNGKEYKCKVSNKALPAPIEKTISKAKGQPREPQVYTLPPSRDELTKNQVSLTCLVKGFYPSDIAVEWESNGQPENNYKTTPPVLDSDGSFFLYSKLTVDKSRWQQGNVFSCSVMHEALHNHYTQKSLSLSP
light: B1 light
modifications: afucosylated (fucose-deficient sugar chain)
notes: afucosylated form of the anti-epiregulin IgG1 H240-G1d/L73-k0; also called afucosylated antibody
Kd [2]: 78 nM | Kd [3]: 490 nM | Kd [4]: 0.43 nM | Kd [5]: 6.9 nM | Kd [6]: 780 nM | Kd [7]: 78 nM | Kd [8]: 490 nM | Kd [9]: 0.43 nM | Kd [10]: 6.9 nM | Kd [11]: 780 nM | Kd [13]: 2600 nM | Kd [14]: 2600 nM

B4: GpH7-TA7/GpH7-B78/GpL16-k0 (antibody, human IgG1, kappa)
heavy 1: QVQLVQSGAEVKKPGASVTVSCKASGYTFTDYEMHWIRQPPGEGLEWIGAIDPKTGDTAYSESFQDRVTLTADKSTSTAYMELSSLTSEDTAVYYCTRFYSYTYWGQGTLVTVSSASTKGPSVFPLAPSSKSTSGGTAALGCLVKDYFPEPVTVSWNSGALTSGVHTFPAVLQSSGLYSLSSVVTVPSSSLGTQTYICNVNHKPSNTKVDKKVEPKSCDKTHTCPPCPAPEYLWGPSVFLFPPKPKDTLMISRTPEVTCVVVDVSHEDPEVKFNWYVDGVEVHNAKTKPREEQYNATYRVVSVLTVLHQDWLNGKEYKCKVSNKALPAPIEKTISKAKGQPREPQVYTLPPSRKELTKNQVSLTCLVKGFYPSDIAVEWESNGQPENNYKTTPPVLDSDGSFFLYSKLTVDKSRWQQGNVFSCSVMHEALHNRYTQKSLSLSP
heavy 2: B4 heavy 1 with Y232L, W234G, S237D, A296S, A328L, I330E, K354D, R433H, K437E
light: DIVMTQSPLSLPVTPGEPASISCQASESLVHSNRNTYLHWYLQKPGQSPQLLIYKVSNRFSGVPDRFSGSGSGTDFTLKISRVEAEDVGVYYCSQNTHVPPTFGQGTKVEIERTVAAPSVFIFPPSDEQLKSGTASVVCLLNNFYPREAKVQWKVDNALQSGNSQESVTEQDSKDSTYSLSSTLTLSKADYEKHKVYACEVTHQGLSSPVTKSFNRGEC
notes: L234Y, G236W, S298A in one H chain and S239D, A330L, I332E in the other
fold FcγRIIIa-binding activity against GpH7-A5/GpH7-B78/GpL16-k0 [15]: ≥ 10 times

B5: GpH7-B3/GpL16-k0 (antibody, human IgG1, kappa)
heavy: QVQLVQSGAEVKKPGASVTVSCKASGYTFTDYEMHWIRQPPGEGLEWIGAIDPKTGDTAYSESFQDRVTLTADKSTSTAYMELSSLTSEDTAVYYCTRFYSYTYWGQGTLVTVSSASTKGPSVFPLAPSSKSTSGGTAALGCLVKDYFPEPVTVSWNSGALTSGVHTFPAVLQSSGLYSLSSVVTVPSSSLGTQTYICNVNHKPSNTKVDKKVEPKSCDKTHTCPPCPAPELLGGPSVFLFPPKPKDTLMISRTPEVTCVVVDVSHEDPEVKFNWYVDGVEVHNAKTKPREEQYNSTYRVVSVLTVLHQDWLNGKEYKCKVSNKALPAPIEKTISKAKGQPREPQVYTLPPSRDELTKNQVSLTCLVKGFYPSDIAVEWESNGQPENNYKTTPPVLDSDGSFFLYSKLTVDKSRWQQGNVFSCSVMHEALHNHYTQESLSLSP
light: B4 light
notes: also called HoCon Ab
binding result [16]: binds | binding result [17]: binds | binding result [18]: binds | binding result [19]: binds
